Laboratory results taken from PMC6329520, “Diversification of DNA binding specificities enabled SREBP transcription regulators to expand the repertoire of cellular functions that they govern in fungi”.

T1: AfSrbA DBD (Aspergillus fumigatus, UniProt Q4WIN1 145-266)
T1 sequence: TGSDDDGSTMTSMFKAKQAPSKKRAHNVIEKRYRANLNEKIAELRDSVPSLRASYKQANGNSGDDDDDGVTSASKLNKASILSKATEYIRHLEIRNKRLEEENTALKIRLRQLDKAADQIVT

T2: CpHms1 DBD (Candida parapsilosis, UniProt G8B9T4 486-659)
T2 sequence: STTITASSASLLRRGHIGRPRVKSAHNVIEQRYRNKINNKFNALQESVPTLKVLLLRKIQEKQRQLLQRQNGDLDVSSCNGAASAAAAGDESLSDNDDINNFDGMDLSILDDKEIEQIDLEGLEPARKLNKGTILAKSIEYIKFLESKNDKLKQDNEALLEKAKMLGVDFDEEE

T3: CaCph2 DBD (Candida albicans, UniProt Q59RL7 197-302)
T3 sequence: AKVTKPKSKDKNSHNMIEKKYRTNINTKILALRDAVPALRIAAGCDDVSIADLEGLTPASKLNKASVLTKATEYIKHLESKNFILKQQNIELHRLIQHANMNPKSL

B1: non-palindromic site fragment (HMS1 cognate site) (dsDNA)
DNA 1: ACAAAAAAAAATCAGGCCATTTGTAATACT
DNA 2: AGTATTACAAATGGCCTGATTTTTTTTTGT

What was measured:
[1] = target: T1, AfSrbA DBD; test: competition; conditions: unlabeled competitor vs labeled N1; at least one order of magnitude; Standard EMSA buffer (composition by reference), 90 min, room temperature, 6% polyacrylamide gel in 0.5x TGE; pH and salt not given
[2] = target: T4, CaHms1 DBD (Candida albicans, UniProt A0A1D8PMZ4 463-685); test: competition; conditions: unlabeled competitor vs labeled N1; at least one order of magnitude; Standard EMSA buffer (composition by reference), 90 min, room temperature, 6% polyacrylamide gel in 0.5x TGE; pH and salt not given
[3] = target: T2, CpHms1 DBD; test: EMSA; 0-100 nM protein; Standard EMSA buffer (composition by reference), 90 min, room temperature, 6% polyacrylamide gel in 0.5x TGE; pH and salt not given; conditions: protein: recombinant; tags: N-terminal 6xHis or 6xHis-MBP (primers: pbRZ75); chain copies: 2; label: 32P
[4] = target: T1, AfSrbA DBD; test: as above; conditions: protein: recombinant; tags: N-terminal 6xHis or 6xHis-MBP (primers: pLIC-H3); chain copies: 2; label: 32P
[5] = target: T4, CaHms1 DBD; test: as above; conditions: protein: recombinant; tags: N-terminal 6xHis or 6xHis-MBP (primers: pLIC-H3); chain copies: 2; label: 32P
[6] = target: T3, CaCph2 DBD; test: competition; little if any discrimination from N3; Standard EMSA buffer (composition by reference), 90 min, room temperature, 6% polyacrylamide gel in 0.5x TGE; pH and salt not given; conditions: protein: recombinant; tags: N-terminal 6xHis or 6xHis-MBP (primers: pLIC-H3); chain copies: 2; label: 32P

Molecule	binding signal (fold weaker than N1) [1]	binding signal (fold weaker than N1) [2]	binding result [3]	binding result [4]	binding result [5]	binding result [6]
palindromic canonical E-box fragment	> 10	> 10	–	–	–	–
B1	–	–	binds	binds	binds	binds
